Results from patent publication US20250145690A1 (US Dept. of Health and Human Services, published 2025).
Changes are numbered by the printed parent chain.

Columns and labels:
Experiment in all cases: bead flow cytometry, AUC minus CD4
[1] = target: SARS-CoV-2 spike N-terminal domain (NTD), recombinant (SARS-CoV-2, UniProt P0DTC2 14-305)
[2] = target: SARS-CoV-2 spike receptor binding domain (RBD), recombinant (SARS-CoV-2, UniProt P0DTC2 319-541)
[3] = target: T1, HCoV-229E spike protein (Sino Biological 40605-V08B) (HCoV-229E, UniProt P15423 16-1115)
T1 sequence: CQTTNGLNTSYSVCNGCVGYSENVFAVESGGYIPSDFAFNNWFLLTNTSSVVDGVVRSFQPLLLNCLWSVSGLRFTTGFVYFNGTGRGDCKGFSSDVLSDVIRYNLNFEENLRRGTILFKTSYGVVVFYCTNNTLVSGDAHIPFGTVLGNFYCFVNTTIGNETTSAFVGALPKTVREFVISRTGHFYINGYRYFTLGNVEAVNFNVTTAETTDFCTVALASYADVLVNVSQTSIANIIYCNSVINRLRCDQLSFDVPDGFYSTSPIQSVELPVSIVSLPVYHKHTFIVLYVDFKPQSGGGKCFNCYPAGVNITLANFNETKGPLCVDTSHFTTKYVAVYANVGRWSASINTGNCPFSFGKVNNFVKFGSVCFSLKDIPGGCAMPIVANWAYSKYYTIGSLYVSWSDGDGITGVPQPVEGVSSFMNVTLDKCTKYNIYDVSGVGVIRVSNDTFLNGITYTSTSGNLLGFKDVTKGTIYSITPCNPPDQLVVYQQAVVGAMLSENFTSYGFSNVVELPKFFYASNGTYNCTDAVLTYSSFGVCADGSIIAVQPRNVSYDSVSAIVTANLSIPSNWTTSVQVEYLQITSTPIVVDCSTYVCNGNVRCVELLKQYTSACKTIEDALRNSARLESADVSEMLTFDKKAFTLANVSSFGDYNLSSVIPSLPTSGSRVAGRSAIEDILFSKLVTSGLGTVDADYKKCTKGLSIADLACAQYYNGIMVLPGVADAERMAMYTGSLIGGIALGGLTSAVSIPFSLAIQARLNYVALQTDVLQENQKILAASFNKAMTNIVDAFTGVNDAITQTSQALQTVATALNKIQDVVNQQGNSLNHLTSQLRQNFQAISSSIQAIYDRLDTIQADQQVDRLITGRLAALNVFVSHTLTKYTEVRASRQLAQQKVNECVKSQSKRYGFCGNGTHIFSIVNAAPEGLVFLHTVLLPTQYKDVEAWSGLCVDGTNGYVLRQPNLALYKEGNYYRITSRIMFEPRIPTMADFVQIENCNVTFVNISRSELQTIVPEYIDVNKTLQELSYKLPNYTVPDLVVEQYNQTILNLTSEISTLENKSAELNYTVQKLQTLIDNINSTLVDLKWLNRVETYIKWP

[4] = target: T2, HCoV-NL63 spike protein (Sino Biological 40604-V08B) (HCoV-NL63, UniProt Q6Q1S2 19-1296)
T2 sequence: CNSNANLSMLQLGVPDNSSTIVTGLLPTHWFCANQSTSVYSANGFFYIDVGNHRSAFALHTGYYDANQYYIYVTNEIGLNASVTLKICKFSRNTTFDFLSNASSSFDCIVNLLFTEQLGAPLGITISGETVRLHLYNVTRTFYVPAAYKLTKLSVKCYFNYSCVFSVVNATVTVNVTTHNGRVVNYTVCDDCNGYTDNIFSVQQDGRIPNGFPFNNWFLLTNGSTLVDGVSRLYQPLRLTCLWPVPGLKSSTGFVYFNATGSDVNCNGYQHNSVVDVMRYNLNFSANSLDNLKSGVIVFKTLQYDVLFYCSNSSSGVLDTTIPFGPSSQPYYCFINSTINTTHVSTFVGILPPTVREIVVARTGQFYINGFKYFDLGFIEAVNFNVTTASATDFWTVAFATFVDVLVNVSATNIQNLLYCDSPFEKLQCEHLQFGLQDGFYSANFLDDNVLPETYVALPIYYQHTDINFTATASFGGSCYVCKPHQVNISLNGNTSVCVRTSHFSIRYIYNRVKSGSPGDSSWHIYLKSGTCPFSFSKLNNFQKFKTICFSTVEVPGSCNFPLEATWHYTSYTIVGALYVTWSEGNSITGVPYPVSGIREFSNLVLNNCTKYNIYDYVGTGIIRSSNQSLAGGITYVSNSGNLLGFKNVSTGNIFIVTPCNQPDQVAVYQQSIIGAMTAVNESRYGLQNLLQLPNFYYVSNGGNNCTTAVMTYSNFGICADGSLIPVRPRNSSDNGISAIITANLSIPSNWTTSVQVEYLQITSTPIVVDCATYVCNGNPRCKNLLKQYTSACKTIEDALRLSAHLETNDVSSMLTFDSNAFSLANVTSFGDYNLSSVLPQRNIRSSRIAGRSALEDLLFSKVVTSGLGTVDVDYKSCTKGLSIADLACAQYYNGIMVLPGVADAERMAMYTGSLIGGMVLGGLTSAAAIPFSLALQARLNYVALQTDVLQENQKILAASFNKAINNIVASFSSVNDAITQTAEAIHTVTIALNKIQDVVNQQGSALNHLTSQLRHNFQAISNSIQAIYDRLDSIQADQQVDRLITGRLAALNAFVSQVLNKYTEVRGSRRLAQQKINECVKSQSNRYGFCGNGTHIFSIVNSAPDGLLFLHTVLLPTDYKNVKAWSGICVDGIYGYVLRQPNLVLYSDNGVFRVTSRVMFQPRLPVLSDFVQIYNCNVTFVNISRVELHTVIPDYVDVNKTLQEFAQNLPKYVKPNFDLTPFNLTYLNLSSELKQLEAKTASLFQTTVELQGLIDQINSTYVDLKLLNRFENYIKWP

Measured: binding result

B1: COV49-04 (antibody, V domains shown)
VH: EVQLLESGGGLVQPGGSLRLSCATSGFTFSSYAMTWVRQAPGKGLEWVSAISGGGATTYSTDSVKGRFTTSRDNSKNTLYLQMNNLRAEDTALYYCAKGAFYNILSSIIVEGDYWGQGTLVTVSS
VL: DVVMTQSPLSLSVTLGQPASISCRSSQSLVFSDGDTYLNWFQQRPGQSPRRLIYRVSNRDSGVPDRFSGSGSGTDFTLKISRVEAEDVGVYYCMQGTHWLSITFGQGTRLDIK
no binding (tested: 200 µg/mL): all assays above

B2: COV49-30 (antibody, V domains shown)
VH: EVQLLESGGGLVQPGGSLRVSCTVSGFTFSDYSMSWVRQAPGKGLDWVSAISGTGETAYYADFVKGRFTSSRDNSKNTVYLQMNSLRGEDTAVYYCVKGVFYNILSSIIVEGDYWGQGTLVTVSS
VL: B1 VL with D1G, S12P, D35N, R55K, N58K, K79T, D111E
no binding (tested: 200 µg/mL): all assays above

B3: COV49-05 (antibody, V domains shown)
VH: EVQLLESGGGLAQPGGSLRLSCVASGFSFNDYAMTWVRQAPGKGLEWVSAVSSGGQTTYSTDSVKGRFTISRDNSKNMLYLQMNSLRAEDTAVYYCVKGAFYNILSSIIVEGDYWGQGTLVTVSS
VL: B1 VL with D1G, M4L, S12P, D35N, R55Q, S61P, D111E
no binding (tested: 200 µg/mL): all assays above

B4: COV49-47 (antibody, V domains shown)
VH: B3 VH with T35A, S53G, I70T, M78T, S85G, T91A, Y114N
VL: B1 VL with D1G, M4L, S12P, D35N, R55Q, S61P, D111E
no binding (tested: 200 µg/mL): all assays above

B5: COV49-28 (antibody, V domains shown)
VH: B3 VH with E1G, R19K, Q39R, A40P, T58S, M78T, N84S, V93I
VL: B1 VL with D1G, M4L, S12P, D35K, R55Q, S61P, D111E
no binding (tested: 200 µg/mL): all assays above

B6: COV49-33 (antibody, V domains shown)
VH: B3 VH with N30D, A40P, S53G, I70T, M78T, A88G
VL: B1 VL with D1V, M4L, S12P, I21V, D35N, R55Q, S61P, D111E
no binding (tested: 200 µg/mL): all assays above

B7: COV49-18 (antibody, V domains shown)
VH: B2 VH with T23A, D31N, S33A, T54S, A58R, S70I, V79L, V100A
VL: B1 VL with S12P, D35N, R55K, N58K, D111E
no binding (tested: 200 µg/mL): all assays above

B8: COV49-23 (antibody, V domains shown)
VH: B3 VH with L20I, T35A, Q39R, S53G, I70T, M78T, S85G, T119A
VL: B1 VL with D1G, M4L, S12P, D35N, R55Q, S61P, D111E
no binding (tested: 200 µg/mL): all assays above

B9: COV49-07 (antibody, V domains shown)
VH: B2 VH with D46E, V79L, S85T, V100A
VL: B1 VL with D1G, S12P, D35N, R55K, N58E, K79T, D111E
no binding (tested: 200 µg/mL): all assays above

B10: COV57-19 (antibody, V domains shown)
VH: QVQLQESGPGLVKPSGTLSLTCAVSGDSISSSNWWSWVRQPPGKGLEWIGEIYQSGTTNNNPSLKSRVTISIDKSKNQFSLNLTSVTAADTAVYYCARAPLVFRSYGMDVWGQGTTVTVSS
VL: DIQMTQSPSSLSASVGDRVTITCRASQTIRTYLNWYQQKPGKAPKLLIYDASNLQSGVPSRFSGSGSGTDFTLTISSLEPEDFATYYCQQSYITPPWTFGQGTKVEIK
no binding (tested: 200 µg/mL): all assays above

B11: COV57-05 (antibody, V domains shown)
VH: B10 VH with Q5L, A23D, P41S
VL: B10 VL with K104R
no binding (tested: 200 µg/mL): all assays above

B12: COV49-06 (antibody, V domains shown)
VH: EVQLLESGGGLVRPGGSLRLSCAASGFTFTNYAMSWVRQAPGKGLEWVSAISGGDGRTSYYADSVKGRFTSSRDNSKNTLYLQMNSLRAEDTAVYYCAKGAFYNILSSIIVEGDYWGQGTLVTVSS
VL: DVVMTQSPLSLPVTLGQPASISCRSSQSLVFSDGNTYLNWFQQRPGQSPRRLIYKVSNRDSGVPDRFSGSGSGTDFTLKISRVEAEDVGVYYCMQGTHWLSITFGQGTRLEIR
no binding (tested: 200 µg/mL): all assays above
